The values that follow come from publication PMC8080589, “Modulation of αVβ6 integrin in osteoarthritis-related synovitis and the interaction with VTN(381–397 a.a.) competing for TGF-β1 activation” (Experimental & Molecular Medicine, 2021).

For assay [1], the target named is T1, integrin αVβ3 (Homo sapiens, UniProt P05106+P06756).
T1 construct: purchased R&D System; Minneapolis, MN, USA
Kind of assay: Saturation assay with radiolabeled echistatin, αVβ3. Format: binding. The conditions noted are these: increasing radiolabeled echistatin, integrin coated at 1.8 µg/mL. The procedure: (§1) To determine if VTN(381–397 a.a.) could interact with integrins, we investigated its ability to compete with radiolabeled echistatin for binding to five different integrin complexes: α5β1, αVβ1, αVβ3, αVβ5 and αVβ6. We also tested the binding affinity of the whole VTN protein and another VTN fragment, VTN(365–381 a.a), as previously described by Maile et al.,[33]. First, the binding affinity of echistatin to the five integrins was measured by determining the equilibrium dissociation constant (KD). KD was evaluated by saturation assays involving addition of increasing concentrations of radiolabeled echistatin to a constant concentration of integrins (coated at 1.8 µg/mL). […] Subsequently, competitive experiments were performed using increasing concentrations of ligand and a fixed amount of radiolabeled echistatin. The fixed concentration of radiolabeled echistatin was determined according to its KD value. For each ligand concentration, the relative binding of ^125ISIB-echistatin to coated integrins was then measured, and values were plotted versus the logarithm of ligand concentration.

In assay [2] the target is T2, integrin αVβ5 (Homo sapiens, UniProt P06756+P18084).
T2 construct: purchased R&D System; Minneapolis, MN, USA
T2 sequence (P06756 31-992 limits assumed): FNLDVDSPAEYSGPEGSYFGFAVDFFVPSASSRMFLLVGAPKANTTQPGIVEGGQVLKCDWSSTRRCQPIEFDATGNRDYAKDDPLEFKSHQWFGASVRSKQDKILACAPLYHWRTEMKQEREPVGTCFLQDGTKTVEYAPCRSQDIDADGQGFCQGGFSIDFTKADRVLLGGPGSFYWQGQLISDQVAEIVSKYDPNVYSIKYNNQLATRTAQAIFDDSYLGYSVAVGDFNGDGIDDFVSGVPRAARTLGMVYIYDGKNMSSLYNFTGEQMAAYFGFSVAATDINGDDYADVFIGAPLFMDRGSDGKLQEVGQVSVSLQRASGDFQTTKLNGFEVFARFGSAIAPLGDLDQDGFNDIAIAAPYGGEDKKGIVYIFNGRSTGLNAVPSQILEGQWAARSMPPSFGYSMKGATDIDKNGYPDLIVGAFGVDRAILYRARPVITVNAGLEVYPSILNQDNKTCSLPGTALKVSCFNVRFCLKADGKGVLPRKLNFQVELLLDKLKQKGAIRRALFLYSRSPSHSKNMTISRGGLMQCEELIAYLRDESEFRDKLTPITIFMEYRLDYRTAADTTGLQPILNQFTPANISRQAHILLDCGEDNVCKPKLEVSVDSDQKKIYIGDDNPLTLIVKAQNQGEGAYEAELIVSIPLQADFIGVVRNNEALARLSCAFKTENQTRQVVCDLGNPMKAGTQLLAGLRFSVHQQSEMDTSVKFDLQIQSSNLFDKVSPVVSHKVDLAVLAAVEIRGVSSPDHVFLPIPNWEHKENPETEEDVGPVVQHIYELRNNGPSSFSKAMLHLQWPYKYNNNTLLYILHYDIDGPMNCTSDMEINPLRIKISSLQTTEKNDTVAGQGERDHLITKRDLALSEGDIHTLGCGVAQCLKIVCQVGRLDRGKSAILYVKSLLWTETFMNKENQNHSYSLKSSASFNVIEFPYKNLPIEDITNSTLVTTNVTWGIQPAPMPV
T2 sequence (P18084 24-719 limits assumed): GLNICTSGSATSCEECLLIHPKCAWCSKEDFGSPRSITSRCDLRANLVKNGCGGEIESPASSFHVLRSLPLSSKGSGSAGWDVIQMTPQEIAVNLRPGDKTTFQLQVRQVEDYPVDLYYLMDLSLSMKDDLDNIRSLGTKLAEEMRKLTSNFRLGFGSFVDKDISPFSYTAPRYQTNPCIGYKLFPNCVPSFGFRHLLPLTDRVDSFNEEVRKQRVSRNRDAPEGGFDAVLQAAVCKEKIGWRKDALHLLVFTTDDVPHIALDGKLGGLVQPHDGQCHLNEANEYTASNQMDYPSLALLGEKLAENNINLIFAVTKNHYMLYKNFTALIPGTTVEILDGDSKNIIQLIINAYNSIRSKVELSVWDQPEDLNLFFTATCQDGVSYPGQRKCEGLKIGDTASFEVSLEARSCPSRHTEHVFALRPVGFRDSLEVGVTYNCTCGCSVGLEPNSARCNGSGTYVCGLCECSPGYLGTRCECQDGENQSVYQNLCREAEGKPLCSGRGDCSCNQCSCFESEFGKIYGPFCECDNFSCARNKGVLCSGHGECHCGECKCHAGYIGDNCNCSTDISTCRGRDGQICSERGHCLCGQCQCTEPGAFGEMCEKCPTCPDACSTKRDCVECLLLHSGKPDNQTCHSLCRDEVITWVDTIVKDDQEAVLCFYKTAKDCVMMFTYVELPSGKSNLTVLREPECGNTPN
Kind of assay: Competition study, 125ISIB-echistatin vs ligands on coated αVβ5. Format: binding. The conditions noted are these: competition with 8 nM 125ISIB-echistatin, recombinant human αVβ5 coated at 1.8 µg/mL, IBB pH 7.4 / 0.5% BSA, 2 h room temperature, duplicate wells. The method, then:
(§2) A competition study was performed to investigate the interaction of VTN(381–397 a.a.) with five different integrins. Radiolabeled echistatin, a disintegrin known to bind integrin receptors, was used as a tracer for the binding assays. Lyophilized echistatin was provided by Bachem (Bubendorf, Switzerland) and radiolabeled by conjugation with a radioiodinated benzoate (^125ISIB) to the epsilon amino group of lysine side chains. For the five integrins, α5β1, αVβ1, αVβ3, αVβ5, and αVβ6 (R&D System; Minneapolis, MN, USA), a solution at 1.8 µg/mL was prepared with integrin-binding buffer (IBB; 20 mM Tris pH 7.4, 150 mM NaCl, 2 mM CaCl2, 1 mM MgCl2, 1 mM MnCl2). Nunc Maxisorp Module plates were coated overnight at 4 °C with integrin complex at 1.8 µg/mL. […] After rinsing, bound radioactivity was quantified using a gamma counter. The percentage of relative binding of radiolabeled echistatin was calculated as follows: radioactivity in the test well*100/radioactivity in the reference well. […] For comparison of the potency of ligands in inhibiting bound ^125ISIB-echistatin for different integrin complexes, the half-maximal inhibitory concentration (IC50) was calculated. The IC50 value was determined by constructing a dose–response curve and examining the effect of different concentrations of ligands on ^125ISIB-echistatin binding. […]

Assay [3] deals with T3, integrin αVβ6 (Homo sapiens, UniProt P06756+P18564).
T3 construct: purchased R&D System; Minneapolis, MN, USA
T3 sequence (P06756 31-992 limits assumed): as the sequence (P06756 31-992 limits assumed) above
T3 sequence (P18564 22-707 limits assumed): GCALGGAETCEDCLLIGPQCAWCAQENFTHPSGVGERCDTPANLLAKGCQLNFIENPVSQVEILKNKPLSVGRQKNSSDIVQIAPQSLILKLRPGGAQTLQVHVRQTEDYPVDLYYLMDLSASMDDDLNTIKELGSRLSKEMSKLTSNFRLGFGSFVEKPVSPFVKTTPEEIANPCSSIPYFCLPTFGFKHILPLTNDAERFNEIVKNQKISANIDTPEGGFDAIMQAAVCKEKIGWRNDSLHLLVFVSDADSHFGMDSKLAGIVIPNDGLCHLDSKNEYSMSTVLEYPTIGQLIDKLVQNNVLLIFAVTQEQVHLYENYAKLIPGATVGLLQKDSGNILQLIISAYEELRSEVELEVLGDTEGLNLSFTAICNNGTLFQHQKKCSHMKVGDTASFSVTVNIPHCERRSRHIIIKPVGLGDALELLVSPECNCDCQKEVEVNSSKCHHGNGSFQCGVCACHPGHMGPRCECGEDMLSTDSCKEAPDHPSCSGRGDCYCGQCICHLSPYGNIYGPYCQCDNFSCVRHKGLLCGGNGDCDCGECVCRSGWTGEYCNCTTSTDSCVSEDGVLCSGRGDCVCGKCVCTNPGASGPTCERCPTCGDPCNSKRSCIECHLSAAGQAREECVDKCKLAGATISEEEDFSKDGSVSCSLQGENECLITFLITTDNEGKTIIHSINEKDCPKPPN
Kind of assay: Competition study, 125ISIB-echistatin vs ligands on coated αVβ6. The format is binding. Conditions: competition with 20 nM 125ISIB-echistatin, recombinant human αVβ6 coated at 1.8 µg/mL, IBB pH 7.4 / 0.5% BSA, 2 h room temperature, duplicate wells, gamma counter, five-parameter logistic. The method, then:
as §2, with “µg/mL. After the wells were washed with sample buffer (IBB, 0.5% BSA), blocking solution (IBB, 2% BSA) was added, and the microplate was incubated for 2 h at room temperature. The wells were then washed three times with IBB/0.5% BSA. Then, ^125ISIB-echistatin was diluted in sample buffer to fixed concentrations of 4, 4, 8, 8, and 20 nM for α5β1, αVβ1, αVβ3, αVβ5, and αVβ6 competition studies, respectively. The ^125ISIB-echistatin was mixed with sample buffer at a ratio of 1:1 (total binding = control well) or with increasing concentrations of ligands (Supplementary information SI1) [complete VTN, VTN(381–397 a.a.), VTN(365–381 a.a.)] at a ratio 1:1 and added to wells in duplicate. We used 1,4,7-triazacyclononane-1,4,7-triacetic acid (NOTA) as a negative control.” for “µg/mL.”
To determine if VTN(381–397 a.a.) could interact with integrins, we investigated its ability to compete with radiolabeled echistatin for binding to five different integrin complexes: α5β1, αVβ1, αVβ3, αVβ5 and αVβ6. […] First, the binding affinity of echistatin to the five integrins was measured by determining the equilibrium dissociation constant (KD). […] The fixed concentration of radiolabeled echistatin was determined according to its KD value. For each ligand concentration, the relative binding of ^125ISIB-echistatin to coated integrins was then measured, and values were plotted versus the logarithm of ligand concentration.

Assay [4] addresses T1, integrin αVβ3. Kind of assay: Competition study, 125ISIB-echistatin vs ligands on coated αVβ3. Format: binding. Conditions: competition with 8 nM 125ISIB-echistatin, recombinant human αVβ3 coated at 1.8 µg/mL, IBB pH 7.4 / 0.5% BSA, 2 h room temperature, duplicate wells. The procedure:
as §2

The target of assay [5] is T4, integrin αVβ1 (Homo sapiens, UniProt P05556+P06756).
T4 construct: purchased R&D System; Minneapolis, MN, USA
T4 sequence (P06756 31-992 limits assumed): as the sequence (P06756 31-992 limits assumed) above
T4 sequence (P05556 21-728 limits assumed): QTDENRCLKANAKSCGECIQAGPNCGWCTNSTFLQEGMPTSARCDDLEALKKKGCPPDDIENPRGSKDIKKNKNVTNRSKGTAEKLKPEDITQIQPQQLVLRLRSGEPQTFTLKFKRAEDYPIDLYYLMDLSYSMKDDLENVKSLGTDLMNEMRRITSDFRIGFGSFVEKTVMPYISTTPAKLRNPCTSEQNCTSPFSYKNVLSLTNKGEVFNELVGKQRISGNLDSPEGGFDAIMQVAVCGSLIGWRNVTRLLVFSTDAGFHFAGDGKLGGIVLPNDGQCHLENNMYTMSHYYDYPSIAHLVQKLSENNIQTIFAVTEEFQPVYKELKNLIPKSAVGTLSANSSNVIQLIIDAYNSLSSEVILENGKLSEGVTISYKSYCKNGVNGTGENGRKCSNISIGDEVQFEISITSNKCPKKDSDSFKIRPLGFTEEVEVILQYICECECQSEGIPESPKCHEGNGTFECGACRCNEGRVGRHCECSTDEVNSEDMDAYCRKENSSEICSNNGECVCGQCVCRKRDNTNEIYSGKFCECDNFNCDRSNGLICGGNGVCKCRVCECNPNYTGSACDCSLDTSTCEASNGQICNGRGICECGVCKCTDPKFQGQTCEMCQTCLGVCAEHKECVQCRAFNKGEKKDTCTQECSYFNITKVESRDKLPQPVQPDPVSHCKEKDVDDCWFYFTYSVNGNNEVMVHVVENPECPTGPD
Nature of the assay: Saturation assay with radiolabeled echistatin, αVβ1. Format: binding. Conditions: increasing radiolabeled echistatin, integrin coated at 1.8 µg/mL. The procedure:
as §1

For assay [6], the target named is T3, integrin αVβ6. Nature of the assay: Saturation assay with radiolabeled echistatin, αVβ6. The format is binding. The conditions noted are these: increasing radiolabeled echistatin, integrin coated at 1.8 µg/mL. The procedure: as §1
Assay [7] deals with T5, integrin α5β1 (Homo sapiens, UniProt P05556+P08648).
T5 construct: purchased R&D System; Minneapolis, MN, USA
T5 sequence (P08648 42-995 limits assumed): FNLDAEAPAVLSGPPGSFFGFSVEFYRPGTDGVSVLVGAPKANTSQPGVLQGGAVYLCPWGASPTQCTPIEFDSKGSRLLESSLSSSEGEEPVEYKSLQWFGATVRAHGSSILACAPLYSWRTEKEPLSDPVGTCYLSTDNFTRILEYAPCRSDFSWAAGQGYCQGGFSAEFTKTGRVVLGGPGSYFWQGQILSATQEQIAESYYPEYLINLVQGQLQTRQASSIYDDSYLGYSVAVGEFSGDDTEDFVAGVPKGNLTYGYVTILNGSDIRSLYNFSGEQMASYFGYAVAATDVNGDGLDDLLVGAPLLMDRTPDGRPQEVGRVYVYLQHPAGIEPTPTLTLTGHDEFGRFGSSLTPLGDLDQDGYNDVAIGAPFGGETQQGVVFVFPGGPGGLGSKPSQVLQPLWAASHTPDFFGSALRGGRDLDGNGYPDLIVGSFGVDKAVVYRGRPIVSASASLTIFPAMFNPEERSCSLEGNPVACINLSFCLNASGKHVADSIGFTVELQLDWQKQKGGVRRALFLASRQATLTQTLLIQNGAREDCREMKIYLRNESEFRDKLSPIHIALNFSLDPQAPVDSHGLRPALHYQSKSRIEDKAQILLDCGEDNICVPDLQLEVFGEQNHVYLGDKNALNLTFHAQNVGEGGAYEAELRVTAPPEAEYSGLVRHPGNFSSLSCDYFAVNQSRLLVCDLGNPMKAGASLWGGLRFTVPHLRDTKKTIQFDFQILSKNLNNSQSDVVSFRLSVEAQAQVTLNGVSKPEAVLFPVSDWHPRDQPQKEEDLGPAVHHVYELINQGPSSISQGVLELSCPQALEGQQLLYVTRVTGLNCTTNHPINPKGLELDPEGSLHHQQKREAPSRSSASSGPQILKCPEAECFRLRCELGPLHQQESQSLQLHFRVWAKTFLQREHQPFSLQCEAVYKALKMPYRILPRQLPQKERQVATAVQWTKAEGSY
T5 sequence (P05556 21-728 limits assumed): as the sequence (P05556 21-728 limits assumed) above
Nature of the assay: Saturation assay with radiolabeled echistatin, α5β1. Format: binding. Conditions: increasing radiolabeled echistatin, integrin coated at 1.8 µg/mL. The procedure:
as §1

The target in assay [8] is T4, integrin αVβ1. Nature of the assay: Competition study, 125ISIB-echistatin vs ligands on coated αVβ1. Format: binding. Conditions: competition with 4 nM 125ISIB-echistatin, recombinant human αVβ1 coated at 1.8 µg/mL, IBB pH 7.4 / 0.5% BSA, 2 h room temperature, duplicate wells. The procedure: as §2
Assay [9] deals with T2, integrin αVβ5. Kind of assay: Saturation assay with radiolabeled echistatin, αVβ5. The conditions noted are these: increasing radiolabeled echistatin, integrin coated at 1.8 µg/mL. The format is binding. The procedure:
as §1

Assay [10] addresses T5, integrin α5β1. Nature of the assay: Competition study, 125ISIB-echistatin vs ligands on coated α5β1. The format is binding. The conditions noted are these: competition with 4 nM 125ISIB-echistatin, recombinant human α5β1 coated at 1.8 µg/mL, IBB pH 7.4 / 0.5% BSA, 2 h room temperature, duplicate wells. The procedure: as §2
Assay [11] concerns latent TGF-β1 activation (αVβ6 on human FLSs; PAI-1 promoter-luciferase in TMLCs). Kind of assay: TGF-β luciferase bioassay, TMLC + FLS coculture, activation of latent TGF-β1. The format is cell-based, human FLSs; mink lung epithelial reporter cells. The conditions noted are these: peptide 50 ng/mL, 200 ng/mL latent TGF-β1, TMLC + FLS coculture, 16 h, n = 6 donors in triplicate, paired Wilcoxon. The procedure: Transformed mink lung epithelial cells (TMLCs), a generous gift from Prof. DB Rifkin (Department of Cell Biology, NYU School of Medicine, New York, NY), were used to test TGF-β1 functionality. TMLCs were cultured in DMEM supplemented with 10% FBS, 1% Pen/Strep, and 1 mg/mL G418 Sulfate (Biowest; Riverside, MO, USA). For coculture, TMLCs were plated in 96-well plates at a density of 10^4 cells per well, and fibroblasts were added at a density of 1.5 × 10^4 cells per well, with a final volume of 100 μL. Cells were allowed to attach at 37 °C and 5% CO2. After 6 h, the medium was removed and replaced by the different treatments diluted in medium with 0.1% BSA without FBS (final volume of 100 μL).
For function-blocking experiments, cells were incubated with anti-αVβ6 antibody (clone 10D5; Merck) or with the isotype control IgG2a kappa (clone eBM2a; Thermo Fisher Scientific) for 20 min at room temperature at a concentration of 50 μg/mL in medium containing 1 mM MgCl2/0.1% BSA before adding other compounds. […] Luciferase activity was assessed by plate-reading luminometers with an injector (Victor™ X3; PerkinElmer Waltham, MA, USA) adding 100 µl of luciferase assay reagent (Promega) per well. […]
The data are expressed as relative luciferase activity (RLA). RLA is the measured luciferase activity of the coculture divided by the activity of the related control alone under the same conditions. […]

Ends that are not written are not given here.

T1 sequence (P06756 31-992 limits assumed): as the sequence (P06756 31-992 limits assumed) above
T1 sequence (P05106 27-718 limits assumed): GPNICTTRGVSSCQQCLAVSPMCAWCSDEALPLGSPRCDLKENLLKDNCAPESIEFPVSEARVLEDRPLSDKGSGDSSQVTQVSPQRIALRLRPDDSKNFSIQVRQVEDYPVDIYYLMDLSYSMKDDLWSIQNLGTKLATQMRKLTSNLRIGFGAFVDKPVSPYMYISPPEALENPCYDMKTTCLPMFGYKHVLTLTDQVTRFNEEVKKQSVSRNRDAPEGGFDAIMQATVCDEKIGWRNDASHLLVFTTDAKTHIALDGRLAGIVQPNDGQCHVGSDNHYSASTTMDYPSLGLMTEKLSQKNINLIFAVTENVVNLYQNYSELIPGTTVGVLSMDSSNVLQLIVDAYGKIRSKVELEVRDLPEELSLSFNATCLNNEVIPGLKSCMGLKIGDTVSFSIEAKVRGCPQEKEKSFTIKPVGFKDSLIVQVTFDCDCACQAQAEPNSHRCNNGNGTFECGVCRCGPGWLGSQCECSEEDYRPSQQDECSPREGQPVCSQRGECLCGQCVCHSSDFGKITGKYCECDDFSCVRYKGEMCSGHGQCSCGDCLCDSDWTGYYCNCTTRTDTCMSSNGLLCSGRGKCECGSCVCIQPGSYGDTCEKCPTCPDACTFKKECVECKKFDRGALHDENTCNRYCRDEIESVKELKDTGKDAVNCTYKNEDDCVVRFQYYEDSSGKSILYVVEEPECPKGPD

Broadly, the Kd is the concentration at which binding is half-saturated. A word on the IC50: it is the concentration that inhibits the measured activity by half. As for “Echistatin (QCESGPCCRNCKFLKEGTICKRARGDDMDDYCNGKTCDCPRNPHKGPAT; disulfide (positions not given here); not fully specified (bridges); also: Lys ε-amino groups conjugated with 125I-iodobenzoate (125ISIB), positions not given here) [tracer radiolabeled with radioiodinated benzoate (125ISIB) at lysine side chains]”, the Kd with integrin αVβ3 [1] was 3.17 nM; with integrin αVβ1 [5] it was 0.99 nM; with integrin αVβ6 [6], 17.1 nM; with integrin α5β1 [7], 1.48 nM; in the assay with integrin αVβ5 [9], 3.46 nM. Besides, the IC50 with integrin αVβ5 [2] turned out to be 4 nM; in the assay with integrin αVβ6 [3], 14 nM; with integrin αVβ3 [4], 3.7 nM; with integrin αVβ1 [8], 1.5 nM; with integrin α5β1 [10], 2 nM.

As for hepcidin: used as a control peptide, the “effect on latent TGF-β1 activation (luciferase signal)” value in assay [11] is listed as “No significant variation was observed”.
